The text below walks through data of paper PMC8761706, “Mapping of the fibrinogen-binding site on the staphylocoagulase C-terminal repeat region” (The Journal of Biological Chemistry, 2021).

Experiment [1] concerns the target T1, [5F]PR–R1 (Staphylococcus aureus Newman D2 Tager …, 5-fluorescein (5-IAF) on the engineered C-terminal Cys).
T1 construct: the 10 SC residues preceding PR (1-10 of the construct numbering); staphylocoagulase, first 11 residues of the 32-residue pseudorepeat PR (11-21 of the construct numbering); last 21 residues of PR (22-42 of the construct numbering); staphylocoagulase repeat R1, 27 residues; engineered C-terminal Cys for labeling; not shown: His6, N-terminal, cleaved
The experiment can be described thus: other fluorescence titration; as the intensity titration in Hepes pH 7.4, with saturating GPRP (4.9 mM in the methods, 5 mM in the results); n fixed to 1. The conditions noted are these: both partners purified.

For experiment [2], the target named is T1, [5F]PR–R1. The experiment can be described thus: other fluorescence titration; fluorescein-labeled construct at fixed concentration titrated with frag D; fluorescence intensity; 25 °C; 50 mM Hepes, 110 mM NaCl, 5 mM CaCl2, 1 mg/ml PEG-8000, pH 7.4, 10 μM FPR-CK; quadratic fit; n fixed to 1 for the Ala constructs and MP. The note with it: both partners purified.

B1: fibrinogen fragment D (domain or fragment)
chain 1: VSEDLRSRIEVLKRKVIEKVQHIQLLQKNVRAQLVDMKRLEVDIDIKIRSCRGSCSRALAREVDLKDYEDQQKQLEQVIAKDLLPSR
chain 2: DNENVVNEYSSELEKHQLYIDETVNSNIPTNLRVLRSILENLRSKIQKLESDVSAQMEYCRTPCTVSCNIPVVSGKECEEIIRKGGETSEMYLIQPDSSVKPYRVYCDMNTENGGWTVIQNRQDGSVDFGRKWDPYKQGFGNVATNTDGKNYCGLPGEYWLGNDKISQLTRMGPTELLIEMEDWKGDKVKAHYGGFTVQNEANKYQISVNKYRGTAGNALMDGASQLMGENRTMTIHNGMFFSTYDRDNDGWLTSDPRKQCSKEDGGGWWYNRCHAANPNGRYYWGGQYTWDMAKHGTDDGVVWMNWKGSWYSMRKMSMKIRPFFPQQ
chain 3: KMLEEIMKYEASILTHDSSIRYLQEIYNSNNQKIVNLKEKVAQLEAQCQEPCKDTVQIHDITGKDCQDIANKGAKQSGLYFIKPLKANQQFLVYCEIDGSGNGWTVFQKRLDGSVDFKKNWIQYKEGFGHLSPTGTTEFWLGNEKIHLISTQSAIPYALRVELEDWNGRTSTADYAMFKVGPEADKYRLTYAYFAGGDAGDAFDGFDFGDDPSDKFFTSHNGMQFSTWDNDNDKFEGNCAEQDGSGWWMNKCHAGHLNGVYYQGGTYSKASTPNGYDNGIIWATWKTRWYSMKKTTMKIIPFNRLTIGEGQQHHLGGAK
One may read the Kd as the constant that tells how readily two partners part at equilibrium. High values mean a looser complex, low ones a tighter complex. Take B1: the Kd in experiment [5F]PR–R1 [1] came to 0.018 µM; in experiment [5F]PR–R1 [2], 0.049 µM.
